Source: patent publication US20250361268A1, “NOVEL ANTI-INFLAMMATORY PEPTIDE AND USE THEREOF” (NOVACELL TECHNOLOGY INC., priority 2022, published 2025)
One block for each binder: values may come before it.

Experiments:
FPR1 = target: T1, FPR1 (UniProt P21462 1-350, limits assumed); test: cell-based or functional assay
T1 sequence (looked up): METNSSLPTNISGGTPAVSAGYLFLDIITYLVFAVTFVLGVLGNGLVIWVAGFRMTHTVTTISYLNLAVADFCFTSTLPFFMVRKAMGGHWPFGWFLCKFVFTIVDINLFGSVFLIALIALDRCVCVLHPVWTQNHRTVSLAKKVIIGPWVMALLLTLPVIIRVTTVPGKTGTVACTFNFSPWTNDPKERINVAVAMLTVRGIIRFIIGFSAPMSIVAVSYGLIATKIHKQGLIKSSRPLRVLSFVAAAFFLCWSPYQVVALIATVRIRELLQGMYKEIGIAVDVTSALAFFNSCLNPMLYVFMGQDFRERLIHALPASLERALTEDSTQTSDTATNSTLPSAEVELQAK

[1] = target: T2, formyl peptide receptor 2 (FPR2) (UniProt P25090 1-351, limits assumed); test: cell-based or functional assay
T2 sequence (looked up): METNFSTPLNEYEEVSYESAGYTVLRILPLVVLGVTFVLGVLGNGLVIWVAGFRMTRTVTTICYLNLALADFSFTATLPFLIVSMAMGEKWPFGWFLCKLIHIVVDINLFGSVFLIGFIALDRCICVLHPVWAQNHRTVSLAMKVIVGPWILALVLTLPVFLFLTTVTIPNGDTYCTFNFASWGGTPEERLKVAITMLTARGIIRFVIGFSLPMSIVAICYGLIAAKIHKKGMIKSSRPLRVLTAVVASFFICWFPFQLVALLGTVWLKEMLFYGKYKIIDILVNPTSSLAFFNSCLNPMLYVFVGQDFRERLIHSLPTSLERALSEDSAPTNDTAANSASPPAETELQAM

EC50 for [Ca2+] (FPR1): > 10 µM
EC50 for [Ca2+] [1]: < 0.01 µM
B2: peptide of SEQ ID NO 78 (peptide)
peptide: RWRYWYM
HELM: PEPTIDE1{[ac].R.W.R.Y.W.Y.[dM].[am]}$$$$V2.0
SMILES: CSCC[C@@H](NC(=O)[C@H](Cc1ccc(O)cc1)NC(=O)[C@H](Cc1c[nH]c2ccccc12)NC(=O)[C@H](Cc1ccc(O)cc1)NC(=O)[C@H](CCCNC(=N)N)NC(=O)[C@H](Cc1c[nH]c2ccccc12)NC(=O)[C@H](CCCNC(=N)N)NC(C)=O)C(N)=O

EC50 for [Ca2+] (FPR1): > 10 µM
EC50 for [Ca2+] [1]: < 0.01 µM
B3: peptide of SEQ ID NO 85 (peptide)
peptide: MRYWYM
HELM: PEPTIDE1{M.R.Y.W.Y.[dM].[am]}$$$$V2.0; N-terminus assumed
SMILES: CSCC[C@H](N)C(=O)N[C@@H](CCCNC(=N)N)C(=O)N[C@@H](Cc1ccc(O)cc1)C(=O)N[C@@H](Cc1c[nH]c2ccccc12)C(=O)N[C@@H](Cc1ccc(O)cc1)C(=O)N[C@H](CCSC)C(N)=O

EC50 for [Ca2+] (FPR1): > 10 µM
EC50 for [Ca2+] [1]: < 0.01 µM
B4: peptide of SEQ ID NO 87 (peptide)
peptide: MRYWYM
HELM: PEPTIDE1{[CCCC(=O)[*:2]].M.R.Y.W.Y.[dM].[am]}$$$$V2.0
SMILES: CCCC(=O)N[C@@H](CCSC)C(=O)N[C@@H](CCCNC(=N)N)C(=O)N[C@@H](Cc1ccc(O)cc1)C(=O)N[C@@H](Cc1c[nH]c2ccccc12)C(=O)N[C@@H](Cc1ccc(O)cc1)C(=O)N[C@H](CCSC)C(N)=O

EC50 for [Ca2+] (FPR1): > 10 µM
EC50 for [Ca2+] [1]: < 0.01 µM
B5: peptide of SEQ ID NO 83 (peptide)
peptide: RMRYWYM
HELM: PEPTIDE1{[CCCC(=O)[*:2]].R.M.R.Y.W.Y.[dM].[am]}$$$$V2.0
SMILES: CCCC(=O)N[C@@H](CCCNC(=N)N)C(=O)N[C@@H](CCSC)C(=O)N[C@@H](CCCNC(=N)N)C(=O)N[C@@H](Cc1ccc(O)cc1)C(=O)N[C@@H](Cc1c[nH]c2ccccc12)C(=O)N[C@@H](Cc1ccc(O)cc1)C(=O)N[C@H](CCSC)C(N)=O

EC50 for [Ca2+] (FPR1): > 10 µM
EC50 for [Ca2+] [1]: < 0.01 µM
B6: peptide of SEQ ID NO 82 (peptide)
peptide: RMRYWYM
HELM: PEPTIDE1{[ac].R.M.R.Y.W.Y.[dM].[am]}$$$$V2.0
SMILES: CSCC[C@H](NC(=O)[C@H](CCCNC(=N)N)NC(C)=O)C(=O)N[C@@H](CCCNC(=N)N)C(=O)N[C@@H](Cc1ccc(O)cc1)C(=O)N[C@@H](Cc1c[nH]c2ccccc12)C(=O)N[C@@H](Cc1ccc(O)cc1)C(=O)N[C@H](CCSC)C(N)=O

EC50 for [Ca2+] (FPR1): > 10 µM
EC50 for [Ca2+] [1]: < 0.01 µM
B11: peptide of SEQ ID NO 86 (peptide)
peptide: MRYWYM
HELM: PEPTIDE1{[ac].M.R.Y.W.Y.[dM].[am]}$$$$V2.0
SMILES: CSCC[C@H](NC(C)=O)C(=O)N[C@@H](CCCNC(=N)N)C(=O)N[C@@H](Cc1ccc(O)cc1)C(=O)N[C@@H](Cc1c[nH]c2ccccc12)C(=O)N[C@@H](Cc1ccc(O)cc1)C(=O)N[C@H](CCSC)C(N)=O

EC50 for [Ca2+] (FPR1): > 10 µM
EC50 for [Ca2+] [1]: < 0.01 µM
B12: peptide of SEQ ID NO 74 (peptide)
peptide: RWRYKPM
HELM: PEPTIDE1{R.W.R.Y.K.P.[dM].[am]}$$$$V2.0; N-terminus assumed
SMILES: CSCC[C@@H](NC(=O)[C@@H]1CCCN1C(=O)[C@H](CCCCN)NC(=O)[C@H](Cc1ccc(O)cc1)NC(=O)[C@H](CCCNC(=N)N)NC(=O)[C@H](Cc1c[nH]c2ccccc12)NC(=O)[C@@H](N)CCCNC(=N)N)C(N)=O

EC50 for [Ca2+] (FPR1): > 10 µM
EC50 for [Ca2+] [1]: < 0.01 µM
B14: peptide of SEQ ID NO 80 (peptide)
peptide: KWKYWYM
HELM: PEPTIDE1{[ac].K.W.K.Y.W.Y.[dM].[am]}$$$$V2.0
SMILES: CSCC[C@@H](NC(=O)[C@H](Cc1ccc(O)cc1)NC(=O)[C@H](Cc1c[nH]c2ccccc12)NC(=O)[C@H](Cc1ccc(O)cc1)NC(=O)[C@H](CCCCN)NC(=O)[C@H](Cc1c[nH]c2ccccc12)NC(=O)[C@H](CCCCN)NC(C)=O)C(N)=O

EC50 for [Ca2+] (FPR1): > 10 µM
EC50 for [Ca2+] [1]: < 0.01 µM
B15: peptide of SEQ ID NO 70 (peptide)
peptide: MKYKPM
HELM: PEPTIDE1{M.K.Y.K.P.[dM].[am]}$$$$V2.0; N-terminus assumed
SMILES: CSCC[C@H](N)C(=O)N[C@@H](CCCCN)C(=O)N[C@@H](Cc1ccc(O)cc1)C(=O)N[C@@H](CCCCN)C(=O)N1CCC[C@H]1C(=O)N[C@H](CCSC)C(N)=O

EC50 for [Ca2+] (FPR1): > 10 µM
EC50 for [Ca2+] [1]: < 0.01 µM
B16: peptide of SEQ ID NO 81 (peptide)
peptide: RMRYWYM
HELM: PEPTIDE1{R.M.R.Y.W.Y.[dM].[am]}$$$$V2.0; N-terminus assumed
SMILES: CSCC[C@H](NC(=O)[C@@H](N)CCCNC(=N)N)C(=O)N[C@@H](CCCNC(=N)N)C(=O)N[C@@H](Cc1ccc(O)cc1)C(=O)N[C@@H](Cc1c[nH]c2ccccc12)C(=O)N[C@@H](Cc1ccc(O)cc1)C(=O)N[C@H](CCSC)C(N)=O

Continued, binder first:

B1: peptide of SEQ ID NO 63 (peptide)
peptide: PMRYKPM
HELM: PEPTIDE1{[ac].P.M.R.Y.K.P.[dM].[am]}$$$$V2.0
SMILES: CSCC[C@H](NC(=O)[C@@H]1CCCN1C(C)=O)C(=O)N[C@@H](CCCNC(=N)N)C(=O)N[C@@H](Cc1ccc(O)cc1)C(=O)N[C@@H](CCCCN)C(=O)N1CCC[C@H]1C(=O)N[C@H](CCSC)C(N)=O
EC50 for [Ca2+] (FPR1): > 10 µM
EC50 for [Ca2+] [1]: < 0.01 µM

B7: peptide of SEQ ID NO 67 (peptide)
peptide: KMKYKPM
HELM: PEPTIDE1{[ac].K.M.K.Y.K.P.[dM].[am]}$$$$V2.0
SMILES: CSCC[C@H](NC(=O)[C@H](CCCCN)NC(C)=O)C(=O)N[C@@H](CCCCN)C(=O)N[C@@H](Cc1ccc(O)cc1)C(=O)N[C@@H](CCCCN)C(=O)N1CCC[C@H]1C(=O)N[C@H](CCSC)C(N)=O
EC50 for [Ca2+] (FPR1): > 10 µM
EC50 for [Ca2+] [1]: < 0.01 µM

B8: peptide of SEQ ID NO 62 (peptide)
peptide: PMRYKPM
HELM: PEPTIDE1{P.M.R.Y.K.P.[dM].[am]}$$$$V2.0; N-terminus assumed
SMILES: CSCC[C@H](NC(=O)[C@@H]1CCCN1)C(=O)N[C@@H](CCCNC(=N)N)C(=O)N[C@@H](Cc1ccc(O)cc1)C(=O)N[C@@H](CCCCN)C(=O)N1CCC[C@H]1C(=O)N[C@H](CCSC)C(N)=O
EC50 for [Ca2+] (FPR1): > 10 µM
EC50 for [Ca2+] [1]: < 0.01 µM

B9: peptide of SEQ ID NO 7 (peptide)
peptide: RMRYKVM
HELM: PEPTIDE1{[CCCC(=O)[*:2]].R.M.R.Y.K.V.[dM].[am]}$$$$V2.0
SMILES: CCCC(=O)N[C@@H](CCCNC(=N)N)C(=O)N[C@@H](CCSC)C(=O)N[C@@H](CCCNC(=N)N)C(=O)N[C@@H](Cc1ccc(O)cc1)C(=O)N[C@@H](CCCCN)C(=O)N[C@H](C(=O)N[C@H](CCSC)C(N)=O)C(C)C
EC50 for [Ca2+] (FPR1): > 10 µM
EC50 for [Ca2+] [1]: < 0.01 µM

B10: peptide of SEQ ID NO 65 (peptide)
peptide: PMRYKPM
HELM: PEPTIDE1{[CCCCCCCC(=O)[*:2]].P.M.R.Y.K.P.[dM].[am]}$$$$V2.0
SMILES: CCCCCCCC(=O)N1CCC[C@H]1C(=O)N[C@@H](CCSC)C(=O)N[C@@H](CCCNC(=N)N)C(=O)N[C@@H](Cc1ccc(O)cc1)C(=O)N[C@@H](CCCCN)C(=O)N1CCC[C@H]1C(=O)N[C@H](CCSC)C(N)=O
EC50 for [Ca2+] (FPR1): > 10 µM
EC50 for [Ca2+] [1]: < 0.01 µM

B13: peptide of SEQ ID NO 68 (peptide)
peptide: KMKYKPM
HELM: PEPTIDE1{[CCCC(=O)[*:2]].K.M.K.Y.K.P.[dM].[am]}$$$$V2.0
SMILES: CCCC(=O)N[C@@H](CCCCN)C(=O)N[C@@H](CCSC)C(=O)N[C@@H](CCCCN)C(=O)N[C@@H](Cc1ccc(O)cc1)C(=O)N[C@@H](CCCCN)C(=O)N1CCC[C@H]1C(=O)N[C@H](CCSC)C(N)=O
EC50 for [Ca2+] (FPR1): > 10 µM
EC50 for [Ca2+] [1]: < 0.01 µM

B17: peptide of SEQ ID NO 64 (peptide)
peptide: PMRYKPM
HELM: PEPTIDE1{[CCCC(=O)[*:2]].P.M.R.Y.K.P.[dM].[am]}$$$$V2.0
SMILES: CCCC(=O)N1CCC[C@H]1C(=O)N[C@@H](CCSC)C(=O)N[C@@H](CCCNC(=N)N)C(=O)N[C@@H](Cc1ccc(O)cc1)C(=O)N[C@@H](CCCCN)C(=O)N1CCC[C@H]1C(=O)N[C@H](CCSC)C(N)=O
EC50 for [Ca2+] (FPR1): > 10 µM
EC50 for [Ca2+] [1]: < 0.01 µM
